Laboratory results: patent US20160024208A1 (Regeneron, published 2016)
Positions count from the first letter of the chain named.

T1: Native Nav1.7 (3-1) peptide, human (human)
T1 construct: Synthetic peptide (Celtek), unbiotinylated; also called Human Nav1.7 3-1 native; Nav1.7 3-1 native peptide
T1 peptide: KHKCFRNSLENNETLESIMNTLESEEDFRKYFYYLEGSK

T2: Native Nav1.7 (3-1) peptide, rat (rat)
T2 construct: Synthetic peptide; also called Rat Nav1.7 3-1 native
T2 peptide: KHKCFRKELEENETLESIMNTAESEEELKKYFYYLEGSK

T3: N-Term Biotin Nav1.7 (3-1) peptide, mouse (mouse, not fully specified; N-terminal biotin attached via a G4S linker)
T3 construct: Synthetic peptide; also called Mouse Nav1.7 3-1 N-term biotin
T3 peptide: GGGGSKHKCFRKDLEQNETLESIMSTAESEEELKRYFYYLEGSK

T4: N-Term Biotin Nav1.7 (3-1) peptide, mulatta (mulatta (monkey), not fully specified; N-terminal biotin attached via a G4S linker)
T4 construct: Synthetic peptide; also called Mulatta Nav1.7 3-1 N-term biotin; monkey
T4 peptide: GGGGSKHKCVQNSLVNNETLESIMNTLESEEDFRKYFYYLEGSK

T5: N-Term Biotin-Nav1.7 (3-1) peptide, human (human, not fully specified; N-terminal biotin attached via a G4S linker)
T5 construct: ELISA peptide
T5 peptide: T4 peptide with V10F, Q11R, V15E

B1: H1M797N (antibody, V domains shown)
VH: QVQLVESGGGVVQPGRSLRLSCAASGFTFSSYGMHWVRQAPGKGLEWVAVISYDGNNKHFADSVKGRFTISRDNSKNTLNLQMNSLRAEDRAVYYCARGASGFVLDIWGQGTMVTVSS
VL: DIVMTQTPLSSPVTLGQPASISCRSSQSLVRSDGNTYLSWLQQRPGQPPRLLIYKISNRFSGVPDRFSGSGAGTDFTLKISRVEAEDVGIYFCMQTTQFPFTFGPGTKVDIK
B2: H1H1006B (antibody, V domains shown)
VH: EVQLVESGPGLVKSSETLSLKCTVSGGSISSSGYYWGWIRQPPGKGLEWIGSIHRSGSTFYNPSLKSRVTISVDTSKSQFSLRLTSVTAADTSVYFCGRHGRDYYYGMDVWGQGTTVTVSS
VL: DIQMTQSPSSVSASVGDRVTITCRSSQDINNWLVWYQQKPGKAPKVLIYGASRLQSGVPSRFSGSGSGTDFTLTISSLQPEDFATYYCQQANSFPLTFGGGTKVEIKR
notes: Fully human antibody; also called H4H1006B-1
B3: H1M801N (antibody, V domains shown)
VH: QVQVVESGGGVVQPGRSLRLSCAASGFTFSNYGMHWVRQAPGKGLEWVTVISYDGSNKNYADSVKGRFTISRDNSKNTLYLQMNSLRAEDTAMYYCARGGSGFAFDIWGQGTMVTVSS
VL: B1 VL with E86D, I90V, F92Y
notes: also called H1H801N
B4: H1M836N (antibody, V domains shown)
VH: QVQLVESGGGVVQPGRSLRLSCAASGFTFSSYGMHWVRQAPGKGLEWVAVISYDGNNKYYADSVKGRFTISRDNSKNTLYLQMNSLRAEDTAVYYCAKGSAGYALDYWGQGTLVTVSS
VL: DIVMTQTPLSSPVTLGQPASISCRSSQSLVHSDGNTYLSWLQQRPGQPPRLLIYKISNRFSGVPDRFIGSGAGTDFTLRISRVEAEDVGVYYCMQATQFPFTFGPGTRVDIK
B5: H1M879N (antibody, V domains shown)
VH: EVQLVESGGGLVKPGGSLRLSCAASGFTFSSYTIHWVRQAPGKGLEWVSSISSSSSYIYYVDSVKGRFTISRDNAKNSVYLQMNSLRAEDTAVYYCATSSITARGYFDYWGQGTLVTVSS
VL: EIVLTQSPATLSLSPGERVTLSCRASQSVSSYLAWYQQKPGQAPRLLIYDASNRATGIPARFSGSGSGTDFTLTISSLEPEDFAVYYCQQRNIWPPTFGQGTKVEIK
notes: Hybridoma-derived

Target: T1, Native Nav1.7 (3-1) peptide, human
Experiment: SPR, captured antibody, peptide analyte
Summary of the method: (§1)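 Biacore SPR: antibody captured via Fc on anti-Fc surface, Nav1.7 loop peptides injected as analyte at several concentrations. Double-referenced sensorgrams globally fitted to a 1:1 model; KD = kd/ka, t1/2 = ln2/kd.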

Going from B1 to B2, the Kd rises from 0.462 nM to 16.4 nM (35-fold). The first binds more tightly here.

Going from B3 to B4, the Kd rises from 3.73 nM to 332 nM (89-fold). The first binds more tightly here.

Binder B5 has a Kd of 4.43 nM.

Going from B1 to B2, the t1/2 falls from 16 min to 3.3 min (4.8-fold).

First: B3
Second: B4
The t1/2 of the first is 14-fold higher: 4.3 min for the first, 0.3 min for the second.

B5 was tested, and the t1/2 was 3 min.

Target: T2, Native Nav1.7 (3-1) peptide, rat
Experiment: SPR, captured antibody, peptide analyte
Summary of the method: as §1

Compared with B1, B2 is 13-fold higher in Kd: 2.57 nM for the first, 33.9 nM for the second.

Compared with B3, B4 is 72-fold higher in Kd: 4.16 nM for the first, 298 nM for the second. The first binds more tightly here.

Going from B1 to B2, the t1/2 falls from 5.8 min to 0.74 min (7.8-fold).

First: B3
Second: B4
The t1/2 of the first is 36-fold higher: 3.6 min for the first, 0.1 min for the second.

B5: no binding.

Target: T3, N-Term Biotin Nav1.7 (3-1) peptide, …
Experiment: SPR, captured antibody, peptide analyte
Summary of the method: as §1

First: B1
Second: B2
The Kd of the first is 14-fold lower: 7.4 nM for the first, 103 nM for the second.

Binder B3 has a Kd of 3.53 nM.

Compared with B1, B2 is 7.4-fold lower in t1/2: 4.6 min for the first, 0.62 min for the second.

For B3, the t1/2 was 4.2 min.

B5: no binding.

Target: T4, N-Term Biotin Nav1.7 (3-1) peptide, …
Experiment: SPR, captured antibody, peptide analyte
Summary of the method: as §1

Going from B1 to B2, the Kd rises from 0.435 nM to 6.1 nM (14-fold).

Going from B3 to B4, the Kd rises from 0.889 nM to 18.1 nM (20-fold).

With B5 the Kd was 1.05 nM.

Compared with B1, B2 is 5.8-fold lower in t1/2: 43.7 min for the first, 7.5 min for the second.

First: B3
Second: B4
The t1/2 of the first is 9.9-fold higher: 16.8 min for the first, 1.7 min for the second.

Work on B5 yielded a t1/2 of 11.7 min.

Target: T5, N-Term Biotin-Nav1.7 (3-1) peptide, …
Experiment: ELISA on coated peptide, antibody 1 ug/ml, OD450 grade
Summary of the method: (§2)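 Peptides coated at 4 μg/mL in PBS, or biotinylated peptides captured at 0.4 μg/mL on avidin (2 μg/mL). Antibodies at 0.1 and 1.0 μg/mL, 1 h at room temperature, detected with HRP anti-mouse or anti-human IgG and TMB at OD450. Scores at 1 μg/ml: <0.2 −; 0.2–1 +; 1–2 ++; 2–4 +++.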

B1 and B2 fall in the same range of OD450: 2 to 4 od for the first, 2 to 4 od for the second.

First: B3
Second: B4
The OD450 of the first is lower: 1 to 2 od for the first, 2 to 4 od for the second.

In the case of B5, the OD450 is reported as 2 to 4 od.

Target: T2, Native Nav1.7 (3-1) peptide, rat
Experiment: as above
Summary of the method: as §2

B1 and B2 fall in the same range of OD450: 2 to 4 od for the first, 2 to 4 od for the second.

B3 and B4 fall in the same range of OD450: 1 to 2 od for the first, 1 to 2 od for the second.

Target: T3, N-Term Biotin Nav1.7 (3-1) peptide, …
Experiment: as above
Summary of the method: as §2

B1 and B2 fall in the same range of OD450: 2 to 4 od for the first, 2 to 4 od for the second.

B3 showed an OD450 of 1 to 2 od.

Target: T4, N-Term Biotin Nav1.7 (3-1) peptide, …
Experiment: as above
Summary of the method: as §2

B1 and B2 fall in the same range of OD450: 2 to 4 od for the first, 2 to 4 od for the second.

B3 and B4 fall in the same range of OD450: 2 to 4 od for the first, 2 to 4 od for the second.

B5 showed an OD450 of 2 to 4 od.
